Target: T1, RAD51 (protein of the in vitro assays) (UniProt Q06609 1-339)
T1 sequence (looked up): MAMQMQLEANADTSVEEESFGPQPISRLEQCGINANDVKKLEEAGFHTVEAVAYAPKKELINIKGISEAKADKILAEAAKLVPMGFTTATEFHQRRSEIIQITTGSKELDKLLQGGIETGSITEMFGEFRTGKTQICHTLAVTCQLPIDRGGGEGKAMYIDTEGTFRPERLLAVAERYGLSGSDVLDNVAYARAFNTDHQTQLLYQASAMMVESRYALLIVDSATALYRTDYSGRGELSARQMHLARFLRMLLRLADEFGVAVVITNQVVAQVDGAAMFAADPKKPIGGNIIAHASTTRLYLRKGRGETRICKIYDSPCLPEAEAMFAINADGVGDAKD
Test: cell-based or functional assay

- activity to dissociate RAD51 from ssDNA relative to wild-type FIGNL1ΔN (0.2 µM protein): 3.2 fold decrease
B1: FIGNL1ΔN-EE (F295E, A298E) (domain or fragment, human, UniProt Q6PIW4 285-674, looked up)
chain: GPKEDSSLPTEKTEKEQLWVDQQKKYHQPQRASGSSYGGVKKSLGASRSRGILGKFVPPIPKQDGGEQNGGMQCKPYGAGPTEPAHPVDERLKNLEPKMIELIMNEIMDHGPPVNWEDIAGVEFAKATIKEIVVWPMLRPDIFTGLRGPPKGILLFGPPGTGKTLIGKCIASQSGATFFSISASSLTSKWVGEGEKMVRALFAVARCQQPAVIFIDEIDSLLSQRGDGEHESSRRIKTEFLVQLDGATTSSEDRILVVGATNRPQEIDEAARRRLVKRLYIPLPEASARKQIVINLMSKEQCCLSEEEIEQIVQQSDAFSGADMTQLCREASLGPIRSLQTADIATITPDQVRPIAYIDFENAFRTVRPSVSPKDLELYENWNKTFGCGK
